Reference: the supplement of paper PMC10126150
± gives the standard deviation of the averaged measurements.
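Also: ATP exposure 15 min at 22 °C before imaging.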

These sequences were tested on ATP (assay: switch fluorescence ratio, 500 uM ATP over buffer (Cy3 cluster intensity, sum of 5 cycles each) (fold (ratio)); higher = stronger signal-on switching upon ATP binding; sequences stand for … in TCGTCGGCAGCGTCAGATGTGTATAAGAGACAGTTTTTTTTTTTTTTTTTTTTTTTTT…TC). Settings: aptamer strand: ATP DNA aptamer (quencher-CACCTGGGGGAGTATTGCGGAGGAAGG + anchor), 100 nM annealed; ATP concentration: 500 uM.
How it was run: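 Cy3-labelled switching-strand clusters on a modified Illumina MiSeq flow-cell were annealed to 100 nM quencher-labelled ATP aptamer, imaged in selection buffer, then imaged after 15 min with 500 uM ATP at 22 °C. Five buffer/ATP cycles ran, with NaOH stripping and re-annealing between them. The fluorescence ratio is summed target-cycle over summed buffer-cycle Cy3 intensity per cluster, averaged per switch-domain sequence. Clusters outside 100-1000 RFU were excluded.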
With TCAAGTTAAG the switch fluorescence ratio was 0.9772 ± 0.0014.
With ACGAAGGTCT the switch fluorescence ratio was 0.998 ± 0.012.
With AGATGAGAGT the switch fluorescence ratio was 1 ± 0.018.
GCTACAGGGG gave a switch fluorescence ratio of 1.18 ± 0.25.
ATTAGAAAAG gave a switch fluorescence ratio of 0.991 ± 0.03.
GCTTTAATTC gave a switch fluorescence ratio of 1.029 ± 0.0049.
In the case of GATATTTTTA, the switch fluorescence ratio is reported as 0.98 ± 0.034.
Work on AGAAAGTTGA yielded a switch fluorescence ratio of 1.024 ± 0.01.
TATAGTTTTG was tested, and the switch fluorescence ratio was 0.996 ± 0.021.
TTAGAGGGTT was tested, and the switch fluorescence ratio was 1.01 ± 0.031.
In the case of CTATGCGTTT, the switch fluorescence ratio is reported as 0.989 ± 0.025.
In the case of GGGGACTTAG, the switch fluorescence ratio is reported as 0.9854 ± 0.0025.
Sequence CGTAGATACA has a switch fluorescence ratio of 1.03 ± 0.036.
With ATGTGGACTG the switch fluorescence ratio was 1.05 ± 0.014.
For CTTGTGTACG, the switch fluorescence ratio was 0.965 ± 0.02.
TTATTCCCAG showed a switch fluorescence ratio of 1.016 ± 0.0014.
Sequence ATGGGTCCTG has a switch fluorescence ratio of 0.979 ± 0.048.
In the case of TCGTACCTTG, the switch fluorescence ratio is reported as 1.01 ± 0.025.
TCTTCGGAGT showed a switch fluorescence ratio of 1.03 ± 0.058.
GGGCTGATAG gave a switch fluorescence ratio of 1.01 ± 0.025.
TTCGTCAGTT showed a switch fluorescence ratio of 0.9992 ± 0.0073.
For TTTGTGAGGA, the switch fluorescence ratio was 0.996 ± 0.034.
Work on TAAAGTTTAG yielded a switch fluorescence ratio of 1.02 ± 0.015.
Work on AAGGGATAGG yielded a switch fluorescence ratio of 0.9844 ± 0.001.
For TAAGATTGTA, the switch fluorescence ratio was 0.993 ± 0.032.
Work on ATGTGTTACA yielded a switch fluorescence ratio of 1.01 ± 0.03.
ACGATGAGGA showed a switch fluorescence ratio of 0.982 ± 0.07.
GATCTAGGGC showed a switch fluorescence ratio of 1.02 ± 0.037.
TCGATACGAT showed a switch fluorescence ratio of 0.994 ± 0.018.
Work on AAAAATGGTT yielded a switch fluorescence ratio of 1.02 ± 0.014.
Work on CGGCGGCCCT yielded a switch fluorescence ratio of 1.005 ± 0.0092.
Sequence TTTGAGGAAG has a switch fluorescence ratio of 1.01 ± 0.022.
In the case of TTTGCGCTTT, the switch fluorescence ratio is reported as 1.1 ± 0.084.
Sequence CATTTAAAAA has a switch fluorescence ratio of 0.919 ± 0.032.
With TTGAGGTTGG the switch fluorescence ratio was 1 ± 0.026.
In the case of TTTAGGTGGC, the switch fluorescence ratio is reported as 1.02 ± 0.009.
AAAATATGGT gave a switch fluorescence ratio of 1.01 ± 0.033.
TACTGATTCA gave a switch fluorescence ratio of 1.02 ± 0.025.
Work on TCCTGCCTTA yielded a switch fluorescence ratio of 1.0991 ± 0.00051.
TTCGTTGTAA gave a switch fluorescence ratio of 0.98683 ± 0.00096.
For TAGGGGCGAG, the switch fluorescence ratio was 0.989 ± 0.048.
Sequence TTTTGGGCCC has a switch fluorescence ratio of 1.04 ± 0.076.
For GAGTACTGAG, the switch fluorescence ratio was 1.163 ± 0.0012.
CGGGTTTAAT was tested, and the switch fluorescence ratio was 0.94 ± 0.029.
Sequence AAATCCTATT has a switch fluorescence ratio of 0.982 ± 0.016.
AATGAGGTCG showed a switch fluorescence ratio of 1.002 ± 0.0046.
CATTACTGTA gave a switch fluorescence ratio of 1.24 ± 0.076.
GAAAGTTTGG showed a switch fluorescence ratio of 1.01 ± 0.017.
Sequence GGGATGGGGG has a switch fluorescence ratio of 1 ± 0.043.
Work on GATCCTGGGT yielded a switch fluorescence ratio of 0.974 ± 0.034.
For CGTGCCCGGA, the switch fluorescence ratio was 1.03 ± 0.032.
Work on AATGAAAGCC yielded a switch fluorescence ratio of 1.26 ± 0.39.
With GGATTTATTG the switch fluorescence ratio was 1.02 ± 0.022.
Work on CACAACACTC yielded a switch fluorescence ratio of 1.37 ± 0.044.
For TGTGCTATTT, the switch fluorescence ratio was 1.09 ± 0.17.
Sequence AAGCGTAGAT has a switch fluorescence ratio of 1.009 ± 0.0074.
TTTGTGTTG showed a switch fluorescence ratio of 0.977 ± 0.024.
CGGGACAGTT showed a switch fluorescence ratio of 1 ± 0.061.
AGGTTGGATT gave a switch fluorescence ratio of 0.9706 ± 0.0039.
GAGTGAAGGG was tested, and the switch fluorescence ratio was 1.02 ± 0.016.
Sequence CAATTGCGTA has a switch fluorescence ratio of 0.981 ± 0.068.
With AGACAAGGGT the switch fluorescence ratio was 1.01 ± 0.018.
In the case of ATTGAAGATG, the switch fluorescence ratio is reported as 0.971 ± 0.025.
With GGTTCAATTG the switch fluorescence ratio was 1.03 ± 0.089.
In the case of AATGGTTGGT, the switch fluorescence ratio is reported as 0.994 ± 0.016.
TTTGTTTTAC showed a switch fluorescence ratio of 1.18 ± 0.21.
With TAAAGGGGTT the switch fluorescence ratio was 0.986 ± 0.035.
Sequence GAGGCCCTGA has a switch fluorescence ratio of 0.971 ± 0.035.
Sequence TGAAGTCCTT has a switch fluorescence ratio of 1.005 ± 0.0037.
In the case of AATTGACTTT, the switch fluorescence ratio is reported as 1.04 ± 0.011.
Work on CTCGCCGGGG yielded a switch fluorescence ratio of 1.06 ± 0.013.
Work on TAAGAAGTCT yielded a switch fluorescence ratio of 1.04 ± 0.048.
Work on ATGATGGGCC yielded a switch fluorescence ratio of 1 ± 0.041.
TGCAGCTAGC was tested, and the switch fluorescence ratio was 1.05 ± 0.021.
Sequence TTTTGTCACT has a switch fluorescence ratio of 1.034 ± 0.0031.
Work on ACGAAAGGTT yielded a switch fluorescence ratio of 1.034 ± 0.0089.
With CGTTATGCCT the switch fluorescence ratio was 0.975 ± 0.061.
In the case of CTAATGGCTT, the switch fluorescence ratio is reported as 0.977 ± 0.033.
GAGGCCGGAA showed a switch fluorescence ratio of 1.07 ± 0.016.
In the case of AAAAAGCGGT, the switch fluorescence ratio is reported as 0.984 ± 0.029.
For CAAGGAGGGT, the switch fluorescence ratio was 0.9726 ± 0.0079.
For GAATTTAAAG, the switch fluorescence ratio was 1.007 ± 0.0018.
Work on TGTTTGGTC yielded a switch fluorescence ratio of 0.997 ± 0.013.
GGTTTGAGGT gave a switch fluorescence ratio of 0.993 ± 0.027.
Sequence ATAAGGGCTT has a switch fluorescence ratio of 0.929 ± 0.11.
ATGATGGAAG showed a switch fluorescence ratio of 0.982 ± 0.015.
GGGCCACCAG gave a switch fluorescence ratio of 1.01 ± 0.032.
In the case of TGAAATTTTT, the switch fluorescence ratio is reported as 0.982 ± 0.029.
With AGAGGTTGG the switch fluorescence ratio was 0.996 ± 0.026.
Sequence AAAGCGGATT has a switch fluorescence ratio of 1 ± 0.018.
With AAGGGATTGC the switch fluorescence ratio was 0.995 ± 0.053.
ATGGGGCACG showed a switch fluorescence ratio of 0.987 ± 0.037.
Work on TTGGGAATAA yielded a switch fluorescence ratio of 1.02 ± 0.0046.
GAAGGCGTTT showed a switch fluorescence ratio of 0.9778 ± 0.0032.
For TGTAAGAAAA, the switch fluorescence ratio was 0.985 ± 0.052.
Work on TATAGAGGGA yielded a switch fluorescence ratio of 0.988 ± 0.02.
TTTGTCGCCG was tested, and the switch fluorescence ratio was 1.01 ± 0.029.
TATGATGTGC was tested, and the switch fluorescence ratio was 0.969 ± 0.017.
Work on TTTTCAAGTA yielded a switch fluorescence ratio of 0.9789 ± 0.0094.
In the case of GCACTCGGGA, the switch fluorescence ratio is reported as 1.03 ± 0.027.
